# Reference: US11697815B2, “Regulation of gene expression through aptamer-modulated polyadenylation” (MeiraGTx UK II Limited, priority 2016, dated 2023)
# Legend:
# [1] = test system: Renilla luciferase expression; experiment: Renilla luciferase assay of HEK 293 cells transfected with pRL-SV40 constructs carrying U1 binding sites in the 3′ UTR; assay type: cell-based; settings: for suppressive effect of U1 site on luciferase gene expression (in words): no ligand; for reduction fold (luciferase activity of mutant construct / wild type construct): compared to corresponding mutant construct; for inhibition of Renilla luciferase expression/activity: compared to pRL-SV40 control vector
# Experimental: Plasmid constructs: oligonucleotides (oligos) containing either wild type consensus U1 binding sequence or its mutant sequence were synthesized (IDT). The synthesized oligos were cloned into the 3′ UTR of the pRL-SV40 luciferase expression vector (Promega) using Gibson Assembly Cloning Kit (NEB). Constructs were purified (Qiagen) and verified by DNA sequencing (Genewiz).
# (§1) Transfection: 3.5×10^4 HEK 293 cells were plated in a 96-well flat bottom plate the day before transfection. Plasmid DNA (500 ng) was added to a tube or a 96-well U-bottom plate. Separately, TransIT-293 reagent (Mirus; 1.4 μl) was added to 50 μl Opti-mem I media (Life Technologies), and allowed to sit for 5 minutes at room temperature (“RT”). Then, 50 μl of this diluted transfection reagent was added to the DNA, mixed, and incubated at RT for 20 min. Finally, 7 μl of this solution was added to a well of cells in the 96-well plate.
# (§2) Renilla luciferase assay of cultured cells: 24 hours after the media change, plates were removed from the incubator, and equilibrated to RT for several minutes on a lab bench, and the media aspirated. Glo-lysis buffer (Promega, 100 μl, RT) was added, and the plates allowed to remain at room temp for at least 5 minutes. Then, the well contents were mixed by 50 μl trituration, and 20 μl of each well was mixed with 20 μl of Renilla-glo reagent in a solid-white 384-well plate. Ten minutes later, luminescence was measured using a Tecan machine with 500 msec read time. The luciferase activity was expressed as mean relative light unit (RLU)±SD.
# The stem-loop sequences containing a wild type 9 nt U1 binding sequence were synthesized (IDT) and cloned into pRL-SV40 vector. The construct sequences were verified by DNA sequencing (Genewiz). HEK 293 cells were transfected and Renilla luciferase assay were performed as described in Example 1.
# [2] = test system: Renilla luciferase expression; experiment: Renilla luciferase assay of HEK 293 cells transfected with U1_theo riboswitch constructs, with or without theophylline; assay type: cell-based; settings: for change of luciferase activity after theophylline treatment (in words): with vs without theophylline
# Experimental: as §1, §2
# Oligonucleotides containing either the full length of sequences of the stem from the stem-loop structure and theophylline aptamer or the truncated sequences of the stem, were synthesized (IDT) and cloned into pRL-SV40 vector using the Gibson Assembly Cloning Kit (NEB). Construct sequences were verified by DNA sequencing (Genewiz).
# Transfection and aptamer ligand treatment: HEK 293 cells were transfected as described in Example 1. Four hours after transfection, the media was aspirated, and new media with or without 3 mM theophylline was added. A Renilla luciferase assay was performed 20 to 24 hours after theophylline treatment as described in Example 1. The induction fold was expressed as the quotient of luciferase activity obtained in the presence of aptamer ligand divided by the value obtained in the absence of the aptamer ligand.
# Oligos containing 4 copies of the U1_theo_8_1 sequence in tandem were synthesized (IDT) and cloned using Gibson strategy and cloning kit (NEB). HEK 293 cells were transfected and Renilla luciferase assay was performed as described in Example 4.
Molecule,suppressive effect of U1 site on luciferase gene expression (in words) [1],reduction fold (luciferase activity of mutant construct / wild type construct) [1] [fold],also measured
"87-9: 9-nt truncated U1 site at −87 in pRL-SV40 (nucleic acid, in pRL-SV40; 87-9 in pRL-SV40, 9-nt truncated U1 site at −87 in pRL-SV40) DNA: TCAAATCGTTCGTTGAGCGAGTTCTCAAAAATGAACAATAATTCTAGAGCGGCCGCTTCGAGCAGACATGATAAGATACATTGATGAGTTTGGACAAACCAGGTAAGTCAACTAGAATGCAGTGAAAAAAATGCTTTATTTGTGAAATTTGTGATGCTATTGCTTTATTTGTAACCATTATAAGCTGCAATAAACAAGTTAACAACAAC",functioned as well as the 10-nt U1 site,–,–
"U1-87 mut: 10-nt mutant U1 binding sequence at −87 in pRL-SV40 (nucleic acid, in pRL-SV40; U1-87 mut in pRL-SV40) DNA: TCAAATCGTTCGTTGAGCGAGTTCTCAAAAATGAACAATAATTCTAGAGCGGCCGCTTCGAGCAGACATGATAAGATACATTGATGAGTTTGGACAAACCATGGAACTACAACTAGAATGCAGTGAAAAAAATGCTTTATTTGTGAAATTTGTGATGCTATTGCTTTATTTGTAACCATTATAAGCTGCAATAAACAAGTTAACAACAAC",did not have any suppressive effect on luciferase gene expression,–,–
"U1-87 wt: 10-nt consensus U1 binding sequence 87 nt upstream of poly(A) signal in 3′ UTR of pRL-SV40 (nucleic acid, in pRL-SV40; U1-87 wt in pRL-SV40) DNA: TCAAATCGTTCGTTGAGCGAGTTCTCAAAAATGAACAATAATTCTAGAGCGGCCGCTTCGAGCAGACATGATAAGATACATTGATGAGTTTGGACAAACCAGGTAAGTACAACTAGAATGCAGTGAAAAAAATGCTTTATTTGTGAAATTTGTGATGCTATTGCTTTATTTGTAACCATTATAAGCTGCAATAAACAAGTTAACAACAAC",–,50,inhibition of Renilla luciferase expression/activity [1]: 98%
"U1-140 mut: mutant U1 binding sequence at −140 in pRL-SV40 (nucleic acid, in pRL-SV40; U1-140 mut in pRL-SV40) DNA: TCAAATCGTTCGTTGAGCGAGTTCTCAAAAATGAACAATAATTCTAGACATGGAACTAGCGGCCGCTTCGAGCAGACATGATAAGATACATTGATGAGTTTGGACAAACCACAACTAGAATGCAGTGAAAAAAATGCTTTATTTGTGAAATTTGTGATGCTATTGCTTTATTTGTAACCATTATAAGCTGCAATAAACAAGTTAACAACAAC",did not cause inhibition of luciferase gene expression,–,–
"U1-140 wt: consensus U1 binding sequence at −140 in pRL-SV40 (nucleic acid, in pRL-SV40; U1-140 wt in pRL-SV40) DNA: TCAAATCGTTCGTTGAGCGAGTTCTCAAAAATGAACAATAATTCTAGACAGGTAAGTAGCGGCCGCTTCGAGCAGACATGATAAGATACATTGATGAGTTTGGACAAACCACAACTAGAATGCAGTGAAAAAAATGCTTTATTTGTGAAATTTGTGATGCTATTGCTTTATTTGTAACCATTATAAGCTGCAATAAACAAGTTAACAACAAC",–,12,inhibition of Renilla luciferase expression/activity [1]: 91%
"2×U1-140 wt: 2 copies of wild type U1 binding sequence at −140 in pRL-SV40 (nucleic acid, in pRL-SV40; 2xU1-140 wt in pRL-SV40) DNA: TCAAATCGTTCGTTGAGCGAGTTCTCAAAAATGAACAATAATTCTAGACAGGTAAGTAACCAAACAGGTAAGTAGCGGCCGCTTCGAGCAGACATGATAAGATACATTGATGAGTTTGGACAAACCACAACTAGAATGCAGTGAAAAAAATGCTTTATTTGTGAAATTTGTGATGCTATTGCTTTATTTGTAACCATTATAAGCTGCAATAAACAAGTTAACAACAAC",–,272,–
"U1 87-9 SL broken: control sequence in which no stem is formed, in pRL-SV40 (nucleic acid, in pRL-SV40; U1 87-9 SL broken in pRL-SV40) DNA: TCAAATCGTTCGTTGAGCGAGTTCTCAAAAATGAACAATAATTCTAGAGCGGCCGCTTCGAGCAGACATGATAAGATACATTGATGAGTTTGGACAAACCAAACCCAGGTAAGTTACCGAAAAAAACAAACAAAAAACAACTAGAATGCAGTGAAAAAAATGCTTTATTTGTGAAATTTGTGATGCTATTGCTTTATTTGTAACCATTATAAGCTGCAATAAACAAGTTAACAACAAC",showed little effect on the suppressive function of U1 site,–,–
"U1_theo_8: U1 site stem linked to theophylline aptamer in pRL-SV40, stem truncation series (nucleic acid, in pRL-SV40; U1_theo_8 in pRL-SV40, U1 site stem linked to theophylline aptamer in pRL-SV40, stem truncation series) DNA: TCAAATCGTTCGTTGAGCGAGTTCTCAAAAATGAACAATAATTCTAGAGCGGCCGCTTCGAGCAGACATGATAAGATACATTGATGAGTTTGGACAAACCAAACCCAGGTAAGTGATACCAGCCGAAAGGCCCTTGGCAGCACTTACCTGGGCAACTAGAATGCAGTGAAAAAAATGCTTTATTTGTGAAATTTGTGATGCTATTGCTTTATTTGTAACCATTATAAGCTGCAATAAACAAGTTAACAACAAC",–,–,"induction fold of luciferase activity (theophylline treated / untreated) ([2]; 3 mM theophylline, 20 to 24 hours): 1.3 fold; change of luciferase activity after theophylline treatment (in words) [2]: small increase in luciferase activity; change of luciferase activity after theophylline treatment (in words) ([2]; listed as 8): increased"
"U1 87-9 SL: 9 nt U1 site embedded in a stem-loop structure in pRL-SV40 (nucleic acid, in pRL-SV40; U1 87-9 SL in pRL-SV40, 9 nt U1 site embedded in a stem-loop structure in pRL-SV40) DNA: TCAAATCGTTCGTTGAGCGAGTTCTCAAAAATGAACAATAATTCTAGAGCGGCCGCTTCGAGCAGACATGATAAGATACATTGATGAGTTTGGACAAACCAAACCCAGGTAAGTTACCGAAAGGTAACTTACCTGGGCAACTAGAATGCAGTGAAAAAAATGCTTTATTTGTGAAATTTGTGATGCTATTGCTTTATTTGTAACCATTATAAGCTGCAATAAACAAGTTAACAACAAC",completely abolished the suppressive effect of the U1 site,–,suppressive effect of U1 site on luciferase gene expression (in words) ([1]; listed as U1 87-9 stem loop): completely abolished the suppressive effect
"3×U1-140 wt: 3 copies of wild type U1 binding sequence at −140 in pRL-SV40 (nucleic acid, in pRL-SV40; 3xU1-140 wt in pRL-SV40) DNA: TCAAATCGTTCGTTGAGCGAGTTCTCAAAAATGAACAATAATTCTAGACAGGTAAGTAACCAAACAGGTAAGTAACCAAACAGGTAAGTAGCGGCCGCTTCGAGCAGACATGATAAGATACATTGATGAGTTTGGACAAACCACAACTAGAATGCAGTGAAAAAAATGCTTTATTTGTGAAATTTGTGATGCTATTGCTTTATTTGTAACCATTATAAGCTGCAATAAACAAGTTAACAACAAC",–,462,–
"U1_theo_9: U1 site stem linked to theophylline aptamer in pRL-SV40, stem truncation series (nucleic acid, in pRL-SV40; U1_theo_9 in pRL-SV40, U1 site stem linked to theophylline aptamer in pRL-SV40, stem truncation series) DNA: TCAAATCGTTCGTTGAGCGAGTTCTCAAAAATGAACAATAATTCTAGAGCGGCCGCTTCGAGCAGACATGATAAGATACATTGATGAGTTTGGACAAACCAAACCCAGGTAAGTATACCAGCCGAAAGGCCCTTGGCAGACTTACCTGGGCAACTAGAATGCAGTGAAAAAAATGCTTTATTTGTGAAATTTGTGATGCTATTGCTTTATTTGTAACCATTATAAGCTGCAATAAACAAGTTAACAACAAC",–,–,change of luciferase activity after theophylline treatment (in words) [2]: small increase in luciferase activity; change of luciferase activity after theophylline treatment (in words) ([2]; listed as 9): increased
